How the values were obtained:
[1] = molecular target: T1, biotinylated NIF binding to immobilized r11bA (Homo sapiens, UniProt P11215); assay: Inhibition of biotinylated NIF binding to immobilized r11bA
T1 construct: recombinant CD11b A domain (rCD11bA) and recombinant CD11a A domain (r11aA) were expressed as GST fusion proteins; GST (N); made in house; host or cells: Escherichia coli
Description: Immobilization of Recombinant Proteins and Polypeptide: Purified rA-domain preparations (1 μg/well), soluble CD54, human fibrinogen (Sigma Chemical Co., St. Loius, Mo.), gelatin (BioRad-Laboratories) or BSA (Calbiochem-Behring Corp.) (each at 10 μg/well) or selected A-domain-derived peptides (10 μg) were added to Immulon-2 96-well microtiter plates (Dynatech Labs, Chantilly, Va.) overnight. Quantitation of adsorbed wild-type and mutant A-domain and synthetic peptides was done using the mAb 44 in an ELISA, and the BCA kit (from Pierce Chemical Co., Rockford, Ill.), respectively. […]
Biotinylation of recombinant NIP and Measurement of Binding to Immobilized Peptides: Recombinant NIP was labeled with sulfo-NHS-biotin as described by the manufacturer (Pierce Chemical Co.). […] Wells were then washed, incubated with alkaline phosphatase-coupled avidin, washed again, developed with substrate and quantified colormetrically using a microplate reader. […] In experiments where the effects of divalent cations on biotinylated rNIF binding to immobilized rCD11b A-domain were measured, VBSG^−− buffer (veronal-buffered saline, pH=7.4, containing 0.1% gelatin) containing 1 mM of Ca^2+, Mg^2+, Mn^2+, EDTA, EGTA, EGTA plus 1 mM MgCl2, or 1 mM MnCl2. […]

EAC3b = EAC3b (Homo sapiens, UniProt P01024); assay: Erythrocyte binding assay, EAC3b on immobilized protein
Description: Erythrocytes (E) coated with rabbit anti-E IgM (EA) or C3b (EAC3b) were prepared as described by Dana et al. (J. Immunol. 73:153, 1984). EAiC3b (erythrocytes coated with iC3b) were generated by treating EAC3b with purified human factors H and I, or alternatively prepared from EA using C5-deficient human serum (Sigma Chemical Co., St. Louis, Mo.). EAiC3b cells were washed and stored in isotonic veronal-buffered saline (VBS^2+), pH 7.4, containing 0.15 mM calcium-1 mM magnesium (MgCl2+CaCl2) and 1 mg/ml Soybean Trypsin Inhibitor (STI; Worthington Biochemical Co., Freehold, N.J.) at 1.5×10^8 cells/ml. […]
Immobilization of recombinant proteins and peptides: Purified recombinant A-domain was added to Immulon-2 96-well microtiter plates (Dynatech) overnight. […] Binding of the anti-CD11b mabs to the coated rA-domain was measured by ELISA and read using a plate reader (Molecular Dynamics).
Erythrocyte binding assays: Fluoresceinated EAiC3b, EAC3b or EA were resuspended to 1.5×10^8/ml in buffer A, and added […] to wells containing immobilized proteins or peptides in a total volume of 100 ml. […] Fluorescence was quantified (excitatory wavelength, 490 nm, emission wavelength, 510 nm) using a SLM 8000 fluorometer (SLM Instruments, Urbana, Ill.). […] The effect of temperature was evaluated in the presence of 1 mM MnCl2 at 37° C. and at 4° C.

T1 sequence (P11215 150-328 limits assumed): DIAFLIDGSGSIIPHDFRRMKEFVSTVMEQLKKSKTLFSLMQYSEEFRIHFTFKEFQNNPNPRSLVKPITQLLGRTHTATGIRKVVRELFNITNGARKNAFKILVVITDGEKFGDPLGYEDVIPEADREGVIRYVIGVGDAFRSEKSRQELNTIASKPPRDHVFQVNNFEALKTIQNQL
Sequence of EAC3b (P01024 749-1663 limits assumed): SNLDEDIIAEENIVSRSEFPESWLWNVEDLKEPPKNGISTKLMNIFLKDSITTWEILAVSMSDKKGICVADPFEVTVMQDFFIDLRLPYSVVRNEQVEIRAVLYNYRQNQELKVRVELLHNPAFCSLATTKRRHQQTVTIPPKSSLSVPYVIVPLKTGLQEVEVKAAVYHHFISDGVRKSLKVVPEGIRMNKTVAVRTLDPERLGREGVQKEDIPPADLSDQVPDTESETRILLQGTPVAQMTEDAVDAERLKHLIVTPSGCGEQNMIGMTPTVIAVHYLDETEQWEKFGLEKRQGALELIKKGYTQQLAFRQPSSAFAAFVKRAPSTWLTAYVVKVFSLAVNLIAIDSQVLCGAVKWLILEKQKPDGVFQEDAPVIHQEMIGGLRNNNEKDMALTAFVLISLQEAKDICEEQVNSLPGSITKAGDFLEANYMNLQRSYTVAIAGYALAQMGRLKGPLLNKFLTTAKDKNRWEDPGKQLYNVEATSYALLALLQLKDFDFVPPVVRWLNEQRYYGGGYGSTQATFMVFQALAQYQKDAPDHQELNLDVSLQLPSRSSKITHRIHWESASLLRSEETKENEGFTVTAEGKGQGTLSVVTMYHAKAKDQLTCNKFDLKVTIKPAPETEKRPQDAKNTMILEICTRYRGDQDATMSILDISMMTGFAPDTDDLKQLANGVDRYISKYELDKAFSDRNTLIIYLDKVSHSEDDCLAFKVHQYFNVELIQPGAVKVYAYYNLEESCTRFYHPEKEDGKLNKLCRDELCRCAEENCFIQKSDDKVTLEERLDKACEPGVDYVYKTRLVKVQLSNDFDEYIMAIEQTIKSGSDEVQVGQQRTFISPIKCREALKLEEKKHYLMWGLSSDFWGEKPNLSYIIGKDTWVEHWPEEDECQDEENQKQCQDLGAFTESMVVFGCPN
Sequence of EAC3b (P01024 23-667 partner limits assumed): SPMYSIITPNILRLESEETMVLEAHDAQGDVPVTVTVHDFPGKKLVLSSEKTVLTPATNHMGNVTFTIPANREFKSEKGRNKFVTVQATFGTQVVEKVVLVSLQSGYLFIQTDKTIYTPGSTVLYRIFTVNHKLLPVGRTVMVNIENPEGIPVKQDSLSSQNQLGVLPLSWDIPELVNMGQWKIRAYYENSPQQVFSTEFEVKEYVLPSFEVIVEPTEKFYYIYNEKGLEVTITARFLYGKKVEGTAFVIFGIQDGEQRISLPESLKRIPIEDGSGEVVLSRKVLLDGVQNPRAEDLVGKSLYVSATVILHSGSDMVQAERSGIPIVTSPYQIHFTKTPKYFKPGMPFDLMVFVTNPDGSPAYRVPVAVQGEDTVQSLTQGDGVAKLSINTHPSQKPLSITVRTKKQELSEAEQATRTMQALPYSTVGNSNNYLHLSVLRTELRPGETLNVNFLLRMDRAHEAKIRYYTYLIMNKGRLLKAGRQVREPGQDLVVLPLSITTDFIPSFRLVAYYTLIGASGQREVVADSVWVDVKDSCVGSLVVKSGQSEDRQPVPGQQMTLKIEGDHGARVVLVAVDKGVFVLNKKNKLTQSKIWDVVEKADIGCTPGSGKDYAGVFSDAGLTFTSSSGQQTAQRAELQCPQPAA

Substance: r11bA: recombinant human CD11b A domain (Cys128 to Glu321), expressed as GST fusion protein, used as such or after thrombin cleavage
- effect of fluid-phase protein on biotinylated rNIF binding to immobilized r11bA ([1]; dose dependent): abolished
- IC50 ([1]; fluid-phase protein, read-out: half-maximal inhibition of biotinylated rNIF binding to immobilized r11bA): ~1 nM
- binding of EAC3b to immobilized protein (EAC3b): not

— US20050227296A1, “Method for indentifying integrin antagonists” (The General Hospital Corporation, a Massachusetts …, priority 1988, published 2005)
